Reference: the supplement of paper PMC9170038

Tested on: K4 kissing-loop RNA reporter
Test: apparent KD of K4 kissing-loop reporter; higher = weaker reporter binding
Settings: Eterna round: R107
Method: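 RNA-MaP round R107: designed RNA switches with theophylline, tryptophan, arginine or FMN aptamers are transcribed on-chip within common flanks. They are titrated with a labelled K4 kissing-loop RNA reporter in RNA-MaP buffer (100 mM Tris pH 7.5, 80 mM KCl, 4 mM MgCl2), without ligand or with the indicated ligand. Median apparent KD per design.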

[1] = input ligand: theophylline 20 uM
[2] = input ligand: tryptophan 2.4 mM
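Further: bound reporter read as fluorescence of individual clusters on recovered sequencing chips by microscopy, with normalized cluster intensities fitted with a binding model.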

| Sequence | apparent KD of K4 kissing-loop reporter (input ligand: FMN 200 uM) [nM] | apparent KD of K4 kissing-loop reporter (input ligand: arginine 13.2 mM) [nM] | apparent KD of K4 kissing-loop reporter (input ligand: none) [nM] | apparent KD of K4 kissing-loop reporter [1] [nM] | apparent KD of K4 kissing-loop reporter [2] [nM] |
| --- | --- | --- | --- | --- | --- |
| GCGCGUCAUGUUGGCGGGAACUAAGCCGAUACCAGCCGGGAAACCGGCCCUUGGCAGCGGCGCGCCGGAGUGAUGUUCCGACAGA [#2 Exclusion - Theophylline A Attempt #1 (HarryS)] | 226 | 246 | 254 | 284 | 164 |
| GCGGCCCAGCCGGAUACCAGUGACCCGCUGGGAACCGCGGGCCCAGAGUGAUGUUCGGGACACCCUUGGCAGCCGCCUGGGUCGC [#2 Same State - Theophylline B Attempt #18 (HarryS)] | 689 | 274 | 928 | 684 | 320 |
| GCGUCUUGGUCGGCCGCCACUGAGCCUAGUCACACUCUUGAGUGAUGUUGAAGAUGGUGGACUUGCAGGACCGGGACCACGGACG [theeternabot_sameState_KL_Trp_B_41] | 946 | 612 | 590 | 569 | 450 |
| GCUACCUAUGCAGGAUAUGGUAUUACGAGUGAUGUUCGAGGCAUAUAGAGUGAUGUUCUAUAUCCACCAGAAGGGCAUAGGUAGC | 184 | 148 | 179 | 162 | 164 |
| GCUCAGGAGUGAUGUUCCAAGUGAUGUUAACGAGGACCGGUACGGCCGCCACUCGAUACGGCCGGACCGUAAGAUAAACUAGAGC [Same State - Tryptophan A (Freestyle 8)] | 196 | 216 | 188 | 380 | 199 |
| GGACAAGUUUCCGAUACCAGCCUUUAUGCUGGACUAGCUUGAUCAGUGGCUAGUGAUGUUGGCCCUUGGCAGCGGGACUCUUCGG [theeternabot_exclusion_KL_Theo_B_10] | 221 | 204 | 217 | 238 | 218 |
| GGACGACAGGCGGCCGCCACUCAAAGCAGCCAGCGAGUGAUGUUCGUGGCGGAGUGAUGUUCCUAGAGGACCGGGUCUGCAGUUC [Same State Tryptophan B GF 18] | 449 | 390 | 468 | 490 | 362 |
| GGAGCUACCUGGGAUACCAGUCGGAGUCUCAGAGCUCGGAGUGAUGUUCUGGGAUGUUUCGGCCCUUGGCAGCUCUGGGACUCCU [#2 Exclusion - Theophylline B Attempt #18 (HarryS)] | 872 | 749 | 864 | 763 | 881 |
| GGAGGAGAGGGAAGGAGCGUGAAAGAGAAAGAAUAUAGUGAUGUUAUAUAGAAGAAAGAAUCACAGGUAGGUCGCCCGGAGGAGG [SSArgB.A] | 331 | 556 | 684 | 446 | 483 |
| GGAUAGGACACAGGAUAUGGUAGUGAUGUUACCAAACUGGUUAAACAUGUCAGAAAACUGGCAUGACCAGAAGGGUGUCCUAUCG [FmnBX 27 C11+G75] | 83.4 | 63.8 | 66.2 | 71 | 63.8 |
| GGAUAGGACAGAGGAUAUCCAGUGAUGUUGGAGAAUUCUCCUUCAUCAUGUCACAAAAGUGGCAUGGGAGAAGGCUGUCCUAUCG [Mod of Eli's FmnBX 29 v3] | 146 | 579 | 576 | 899 | 578 |
| GGAUAGGACAGAGGAUAUCCUGAGUCUACAAAGUAGGCUCAUAAAGGAUGAAUCCUAGUGAUGUUAGGAGAAGGCUGUCCUAUCG [FmnBX 16 - #SwitchBubble #StaticStem #Palindromic] | 110 | 84.6 | 76.3 | 79.5 | 88.7 |
| GGAUAGGACAGAGGAUAUCUCUAAAGAGGCAAGAAAACUUGUCUCAGAGAUGACUCAGUGAUGUUGAGAGAAGGCUGUCCUAUCG [FmnBX 7 - #SwitchBubble #StaticStem] | 425 | 161 | 174 | 168 | 152 |
| GGAUAGGACAGAGGAUAUCUCUGAGGCAAGAAAACUUGUCUCUAAGGAGAUGACUCAGUGAUGUUGAGAGAAGGCUGUCCUAUCG [FmnBX 12 - #SwitchBubble #StaticStem] | 230 | 144 | 155 | 140 | 157 |
| GGAUAGGAUAGAGGAUAUGGUAUAGGCAAGAAUAACUUGUCAUGUAAAUCCAUGAGGAGUGAUGUUCCAGAAGGCUGUCCUAUCG [MatMod 9 - Jieux - Exclusion - FMN B] | 620 | 179 | 231 | 168 | 123 |
| GGAUCCACCAGUGAUGUUGGAGAAAACUCUAAGGAUAUGACGAAAGUCAGAAGGUGGUAGACUGGGCAAAGUCCGGUCGGAUCCA [FmnA10 U30+G66] | 490 | 120 | 378 | 873 | 660 |
| GGAUGGUAGGCGGCCGCCACUAAAACUGAACACAUACAAACCAGUGAUGUUGGUAUGAUGAAGUAUAGGACCGGGCCUAGAUAGA [Exclusion - Tryptophan B (Freestyle 2)] | 1040 | 731 | 972 | 672 | 827 |
| GGCAGUGAUGUUGCCAGUGGCAGAUGCGAAGGAGCGCAGUGAGAUGCAGGUAGGUCGCGCAUUGAAAUUGCUGUCACUAAAAUGC [#2] | 363 | 369 | 371 | 276 | 234 |
| GGCAGUGAUGUUGCCAGUGGCAGAUUAGAAGGAGCGUGGUGAGACACAGGUAGGUCGCUAAUUGAAAUUGCUGUCACUAAAAUGC [#6] | 292 | 282 | 300 | 368 | 212 |
| GGCAGUGAUGUUGCCAGUGGCAGAUUGGAAGGAGCGUGGUGAGACACAGGUAGGUCGCUAAUUGAAAUUGCUGUCACUAAAAUGC [whbob_Ex_Arginine_A_2t130] | 297 | 314 | 307 | 308 | 242 |
| GGCAUGGUGACGCGGCUGCCAUGCACUUGGGAGGAUAUGUUUCGUGACAGAAGGCCCAGUGAUGUUGGGUCUGUUCAAAAGGACU [Lerere] | 434 | 135 | 146 | 148 | 119 |

| Sequence | apparent KD of K4 kissing-loop reporter (input ligand: FMN 200 uM) [nM] | apparent KD of K4 kissing-loop reporter (input ligand: arginine 13.2 mM) [nM] | apparent KD of K4 kissing-loop reporter (input ligand: none) [nM] | apparent KD of K4 kissing-loop reporter [1] [nM] | apparent KD of K4 kissing-loop reporter [2] [nM] |
| --- | --- | --- | --- | --- | --- |
| GGCCCGGGCGCGGCCGCCACUCCCUCGUACCGAAAGGUAUGAUACCGAGUGAUGUUCGGUUGGAGGAGGACCGGGCGCCCGGGCC [#2 Exclusion - Tryptophan B Attempt #4 (HarryS)] | 140 | 129 | 105 | 80.7 | 152 |
| GGCGGCCGCGCGUAAGCGCGGCCGGCCGAUACCAGCGCGACGGCGCGCCCUUGGCAGCGGCGCCGAGUGAUGUUCGGCCUGCCGG [#2 Same State - Theophylline A Attempt #17 (HarryS)] | 376 | 381 | 441 | 465 | 596 |
| GGGAAGAAGGCGGCCGCCACUGCAGAAGAGACAGAGAGAGAAGAAGAGGAGUGAUGUUCCAAGAACAGGACCGGGCCAAGAAGGG [whbob_SS_Tryp_B_t28] | 167 | 84.2 | 102 | 146 | 129 |
| GGGACGCUAGCUCGAAUGUAGUGAUUUGAUACCAGCCUGUCACUUGGCCCUUGGCAGCAAAGCAGAGUGAUGUUCUGACCAACCU [theeternabot_sameState_KL_Theo_A_47] | 189 | 298 | 235 | 346 | 144 |
| GGGAGGAACUGAGGAUAUUCGAAGAAAUAUAGUGAUGUUAUGUAAGGAGGAGGAGGGAGGGAGGAAGGAGAAGGCAGAAGAGGAG [ExFMNB.A] | 428 | 415 | 500 | 294 | 433 |
| GGGAGUAGUGCGGCCGCCACUGAGAAAGAAGAAGAAUAUAGUGAUGUUAUAUAGGAAAGGAAGAACAGGACCGGGCAUUAGAUUU [SSTRyptB.F] | 232 | 220 | 251 | 232 | 180 |
| GGGAGUAGUGCGGCCGCCACUGAGAAAGAAGAAGAUUGUAGUGAUGUUAUGGAGGAAAGGAAGAACAGGACCGGGCAUUAGAUUU [SSTRyptB.I] | 1080 | 735 | 231 | 651 | 684 |
| GGGAGUGAUGUUCCCACGUUGUCGGUCCUUCGAGGACCGGUACGGCCGCCACUCGCGACCCAGUGAUGUUGGGAUUCACCGUACC [Exclusion Tryptophan A Gf 13] | 431 | 421 | 471 | 506 | 409 |
| GGGCCUAUUGAUGCUGGAGUAAUUCUGGAAGGAGCGCUCAAAGGAGCAGGUAGGUCGCCAGUAUACAAGGGCAGUGAUGUUGCCC [Entimalati] | 143 | 162 | 161 | 146 | 142 |
| GGGCGGCAGACGGCCGCCACUCAUAGCAGCCAGUGAGUGAUGUUCGUGGCGGAGUGAUGUUCCUAGAGGACCGGGUUUGUUGUUC [Same State Tryptophan B GF 19] | 551 | 354 | 464 | 471 | 596 |
| GGGUGGCAGGCGGCCGCCACUCUGAGCACCCACUGAGUGAUGUUCGUGGCGUAAGCCUGUUCGUAGAGGACCGGGUUUGUUGUUC [Exclusion Tryptophan B GF 15] | 413 | 162 | 300 | 281 | 230 |
| GGGUGGGUGCGAGGAUAUGGAGUGAUGUUCCAAAAGAAAAGAAGAGAAGAGAAAGAGAGAAAGAAACCAGAAGGCGCGUCCGUCC | 115 | 123 | 193 | 238 | 141 |
| GGUAGCAUGGCGGCCGCCACUCAUCGCCUCCCAUCGUCGGGAAGAAUAAGUGUAGUGAUGUUACAGAGGACCGGGCCAUGCUACC | 472 | 386 | 898 | 494 | 268 |
| GGUAGCAUGGCGGCCGCCACUGAGCAAGUGAUGUUUGCCUCCCUACCCUAGUGUCGAGAGUAUAUCAGGACCGGGCCAUGCUACC | 188 | 132 | 149 | 164 | 136 |
| GGUAGCAUGGCGGCCGCCACUUACUUCAAUAGGAGUGAUGUUCCUAUUACUAGUAGUGAAAUAAUAAGGACCGGGCCAUGCUACC | 103 | 87.9 | 95.2 | 82.8 | 96.8 |
| GGUAGCGCUAGAGAUACCAGUCAUAUCGCUCUGGAGUGAUGUUCCGGAACGUGCGGAGAAGACCCUUGGCAGCUCAUGACGGUGU [Exclusion Theophylline B GF 4] | 210 | 194 | 224 | 281 | 214 |
| GGUAGCUAGGUAGGAUAUAGCUAGUGGAGUGAUGUUCCACGAUACACGAGUGAUGUUCGUACCCUGCUAGAAGGGCCUAGCUACC | 114 | 159 | 168 | 172 | 161 |
| GGUCCGGGCUCGGCCGCCACUCCCUCCUGCCGUAAGGUGGGAUACCGAGUGAUGUUCGGUUGGAGGAGGACCGGGAGCCCGGACC [#2 Exclusion - Tryptophan B Attempt #15 (HarryS)] | 165 | 113 | 122 | 105 | 107 |
| GGUCGAGUGAUGUUCGAUGUUAUGCAUUCAGAGGAUAUAGGAUUGGCUAGAAGGCUGAAUCGAUCUUCGAGUGAUGUUCGAGGAU [Same State FMN A GF 8] | 116 | 112 | 117 | 101 | 128 |
| GGUCUGCCGCAGUGAUGUUGCUGGCAUACACGAGGACCGGUACGGCCGCCACUCGAUGCUCCAAGAACCACCAAUCUUCGGUAUC [theeternabot_sameState_KL_Trp_A_48] | 257 | 235 | 229 | 236 | 236 |
| GGUGACAACCAGAGGUGAUGUAUAGAAUAGCGAGGACCGGUACGGCCGCCACUCGUGAAGAGAAAGGAGUGAUGUUCCGUAAUGG [Kazoo C5] | 330 | 298 | 453 | 485 | 166 |
